The values below come from publication PMC5476585.

The experiment has as its target 25-nucleosome array (human).

For “Fpr4 FKBP (280-392) (from UniProt Q06205 280-392) (domain or fragment)”, the magnesium-dependent self-association of 25-nucleosome arrays (0.25, 0.5 and 1 mM MgCl2), chromatin in the pellet fraction after centrifugation was above 90%.
